The target in this assay is TLR2 (human (endogenous in BEAS-2B)) (UniProt O60603).

From publication PMC6267192 come the findings set out here.

Sequence of UniProt O60603 (O60603 21-784): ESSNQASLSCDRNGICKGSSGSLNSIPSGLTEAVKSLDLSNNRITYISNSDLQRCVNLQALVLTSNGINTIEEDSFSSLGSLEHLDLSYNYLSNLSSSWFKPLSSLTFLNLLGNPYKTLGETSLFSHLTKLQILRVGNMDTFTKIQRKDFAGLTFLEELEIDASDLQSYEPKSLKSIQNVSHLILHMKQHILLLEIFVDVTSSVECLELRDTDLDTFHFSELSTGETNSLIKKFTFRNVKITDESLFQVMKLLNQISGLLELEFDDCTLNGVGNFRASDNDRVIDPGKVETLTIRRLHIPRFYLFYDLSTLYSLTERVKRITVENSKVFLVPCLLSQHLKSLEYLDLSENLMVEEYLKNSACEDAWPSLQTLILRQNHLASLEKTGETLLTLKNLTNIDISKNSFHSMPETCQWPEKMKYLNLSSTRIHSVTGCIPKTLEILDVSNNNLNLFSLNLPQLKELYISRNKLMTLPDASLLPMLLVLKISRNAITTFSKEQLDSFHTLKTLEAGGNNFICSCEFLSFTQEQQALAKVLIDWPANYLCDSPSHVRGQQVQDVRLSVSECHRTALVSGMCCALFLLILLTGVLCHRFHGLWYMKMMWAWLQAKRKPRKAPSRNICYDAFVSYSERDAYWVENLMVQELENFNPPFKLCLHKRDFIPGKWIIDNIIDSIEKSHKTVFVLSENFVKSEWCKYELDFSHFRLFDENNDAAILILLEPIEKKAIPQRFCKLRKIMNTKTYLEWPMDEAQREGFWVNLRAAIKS

Der p 2.0110 S47W (natural protein) registered an IL-8 release from BEAS-2B cells, allergen at 25 µg/mL, 24 hours of 157 pg/mL. Take “recombinant Der p 2 variant 2.0110 (from UniProt P49278 18-146) (natural protein)”: the IL-8 release from BEAS-2B cells, allergen at 25 µg/mL, 24 hours is 310 pg/mL.
